Reference: article PMC5042407, “Structural Details of Ufd1 Binding to p97 and Their Functional Implications in ER-Associated Degradation” (PLoS ONE, 2016)

Biological target: T1, p97 N domain (21-196) (UniProt P55072 21-196)
T1 construct: p97 (VCP, valosin-containing protein), N-terminal domain, residues 21-196; The methods describe only the fusion proteins (pVFT3S vector, His6-thioredoxin cut off by TEV, E. coli Rosetta2 (DE3)); also called p97N^WT; N-terminal domain of p97; source: recombinant
Test: ITC; p97 N domain (2.0 mM) injected into the cell with Ufd1 SHP peptide (0.050 mM), 25°C, one-site binding model
Details: both partners purified

T1 sequence (P55072 21-196): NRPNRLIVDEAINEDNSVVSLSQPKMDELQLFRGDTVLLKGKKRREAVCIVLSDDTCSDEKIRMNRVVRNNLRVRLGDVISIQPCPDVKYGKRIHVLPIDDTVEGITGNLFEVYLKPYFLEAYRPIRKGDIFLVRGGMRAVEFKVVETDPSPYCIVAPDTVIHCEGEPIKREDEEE

B1: Ufd1 SHP box peptide (225-235) (peptide)
peptide: FRAFSGSGNRL
notes: also called Ufd1SHP^WT; SHP box of Ufd1; source: synthetic peptide (Peptron, Korea)
Kd: 221 ± 36 µM
